Here are results for five molecules from publication PMC3376134, “Regulation of the Escherichia coli HipBA Toxin-Antitoxin System by Proteolysis” (PLoS ONE, 2012).

First the molecules themselves.
T1: HipB72 (Escherichia coli, UniProt P23873 1-72, del73-88)
T1 sequence: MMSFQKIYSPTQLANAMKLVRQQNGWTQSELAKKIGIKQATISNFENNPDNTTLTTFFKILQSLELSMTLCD

T2: HipB (Escherichia coli, UniProt P23873 1-88)
T2 sequence: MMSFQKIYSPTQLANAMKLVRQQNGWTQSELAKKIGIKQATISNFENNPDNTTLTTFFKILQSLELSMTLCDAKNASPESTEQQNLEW

T3: HipB(W88A) (Escherichia coli, UniProt P23873 1-88, W88A)
T3 sequence: T2 sequence with W88A

T4: HipA;HipB (Escherichia coli;Escherichia coli, UniProt P23874;P23873 1-440;1-88, |)
T4 sequence 1: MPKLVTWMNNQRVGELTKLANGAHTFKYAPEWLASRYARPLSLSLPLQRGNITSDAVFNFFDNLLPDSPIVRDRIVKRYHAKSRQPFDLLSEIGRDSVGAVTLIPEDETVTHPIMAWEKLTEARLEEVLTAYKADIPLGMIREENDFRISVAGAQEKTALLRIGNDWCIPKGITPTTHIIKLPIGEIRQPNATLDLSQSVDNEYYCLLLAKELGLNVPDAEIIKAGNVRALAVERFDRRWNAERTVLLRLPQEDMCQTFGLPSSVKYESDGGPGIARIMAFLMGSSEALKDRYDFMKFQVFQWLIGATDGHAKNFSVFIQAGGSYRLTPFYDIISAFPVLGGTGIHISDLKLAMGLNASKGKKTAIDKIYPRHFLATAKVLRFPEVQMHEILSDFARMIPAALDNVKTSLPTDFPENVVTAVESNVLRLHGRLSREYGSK
T4 sequence 2: T2 sequence

B1: hipBA O1O2 operator (dsDNA)
DNA 1: TTATCCGCTTAAGGGGATATTATAAGTTTTATCCTTTAGTGAGGATAA
DNA 2: TTATCCTCACTAAAGGATAAAACTTATAATATCCCCTTAAGCGGATAA
B2: HipA toxin (wild type HipA protein) (enzyme, E. coli, UniProt P23874 1-440, looked up)
chain: T4 sequence 1
B3: HipB antitoxin, wild type (natural protein, E. coli, UniProt P23873 1-88, looked up)
chain: T2 sequence
notes: HipB, antitoxin and repressor of the hipBA operon of Escherichia coli, 88 residues; also called HipB WT; pET15b-HipB; source: E. coli BL21(DE3)pLysS, purified (Ni-NTA)
B4: HipB(W88A) (natural protein, E. coli, UniProt P23873 1-88, looked up)
chain: T2 sequence with W88A
notes: HipB of Escherichia coli with the C-terminal tryptophan 88 changed to alanine, made by site-directed mutagenesis in pET15b-hipB; Strain KLE911; also called HipB(W88A) protein; pET15b-hipB w88a; source: E. coli BL21(DE3)pLysS, purified (Ni-NTA)
B5: HipB72 (C-terminal truncation of HipB lacking the last 16 residues) (domain or fragment, E. coli, UniProt P23873 1-72, looked up)
chain: T1 sequence
notes: Strain KLE912; also called HipB72 C-terminal truncation protein; pET15b-hipB72; source: E. coli BL21(DE3)pLysS, purified (Ni-NTA)

Residue numbers refer to the chain shown, from its start. Names may count otherwise.

One data set deals with T1, HipB72. Nature of the data set: fluorescence polarization; 1 nM DNA; 20 mM Tris-HCl pH 7.5, 100 mM NaCl, 5% glycerol, 10 C, 1 nM labeled DNA. To be noted: protein: recombinant; tags: His6 (Ni-NTA purified); chain copies: 2; label: 5'-6-carboxyfluorescein on top strand; blunt.
For a further data set, the target named is T2, HipB. The description is as above. To be noted: protein: recombinant; tags: His6 (Ni-NTA purified, pET15b); chain copies: 2; label: 5'-6-carboxyfluorescein on top strand; blunt.
The target of a further data set is T3, HipB(W88A). The data set is described as above. To be noted: protein: recombinant; tags: His6 (Ni-NTA purified); chain copies: 2; label: 5'-6-carboxyfluorescein on top strand; blunt.
For the next data set, the target named is T4, HipA;HipB. Nature of the data set: fluorescence polarization; HipA titrated into DNA saturated with 50 nM HipB; Kd is formally HipA for DNA-bound HipB; 20 mM Tris-HCl pH 7.5, 100 mM NaCl, 5% glycerol, 10 C, 1 nM labeled DNA. To be noted: protein: recombinant;recombinant; tags: His6 (Ni-NTA purified, pET28a);His6 (Ni-NTA purified, pET15b); chain copies: 2;4; label: 5'-6-carboxyfluorescein on top strand; blunt.

Data set [1] deals with B3. Nature of the data set: cell-based or functional assay.
Data set [2] concerns the target B2. Nature of the data set: fluorescence polarisation; HipA titrated into 50 nM HipB (or HipB(W88A), HipB72) pre-incubated 2 min with 1 nM 5'-6-carboxyfluorescein-labelled hipBA O1O2 DNA; 20 mM Tris-HCl pH 7.5, 100 mM NaCl, 5% glycerol; 10 °C; the affinity is formally between HipA and HipB bound to the DNA. To be noted: both partners purified.
In data set [3] the target is B2. The data set is described as above. To be noted: both partners purified. This is another data set of the same source.

On to B1, for which the Kd in the data set with HipB72 is 0.4 ± 0.1 nM; with HipB, 0.6 ± 0.1 nM; with HipB(W88A), 0.9 ± 0.4 nM; in the data set with HipA;HipB, 1000 ± 600 nM.

Regarding B2, the “half-life of His6-HipB (0.48 µM) in the in vitro degradation assay with His6-Lon (0.6 µM) when purified His6-HipA (0.48 µM) is added, against lysozyme as control protein” value in data set [1] is greater than 3.33 h.

B3: the Kd in data set [2] was determined as 1000 ± 600 nM.

Regarding B4, in data set [2], the Kd is 1200 ± 300 nM.

Turning to B5, the binding result in data set [3] is listed as “binds”.
